# Test results taken from PMC6892150, “Dimerization of MORC2 through its C-terminal coiled-coil domain enhances chromatin dynamics and promotes DNA repair” (Cell Communication and Signaling : CCS, 2019).
# Target: the molecule itself
# Test: cross-linking; Flag-MORC2 purified from HEK293T, chemical cross-linking, immunoblotting
protein,measurement,value
"microrchidia family CW-type zinc finger protein 2 (MORC2), full length, Flag- or HA-tagged (natural protein, human, UniProt Q9Y6X9 1-1032, looked up, MORC2, human, full length (1032 residues by the printed numbering 950-1032 for the C-terminus); Flag-MORC2 and HA-MORC2 are two differently tagged copies of the same full-length protein; each chain carries one tag only; Written as one molecule because they are co-precipitated with each other to show self-association; Flag-MORC2 was the copy purified for cross-linking; HA-MORC2 was the copy …) MAFTNYSSLNRAQLTFEYLHTNSTTHEFLFGALAELVDNARDADATRIDIYAERREDLRGGFMLCFLDDGAGMDPSDAASVIQFGKSAKRTPESTQIGQYGNGLKSGSMRIGKDFILFTKKEDTMTCLFLSRTFHEEEGIDEVIVPLPTWNARTREPVTDNVEKFAIETELIYKYSPFRTEEEVMTQFMKIPGDSGTLVIIFNLKLMDNGEPELDIISNPRDIQMAETSPEGTKPERRSFRAYAAVLYIDPRMRIFIHGHKVQTKRLSCCLYKPRMYKYTSSRFKTRAEQEVKKAEHVARIAEEKAREAESKARTLEVRLGGDLTRDSRVMLRQVQNRAITLRREADVKKRIKEAKQRALKEPKELNFVFGVNIEHRDLDGMFIYNCSRLIKMYEKVGPQLEGGMACGGVVGVVDVPYLVLEPTHNKQDFADAKEYRHLLRAMGEHLAQYWKDIAIAQRGIIKFWDEFGYLSANWNQPPSSELRYKRRRAMEIPTTIQCDLCLKWRTLPFQLSSVEKDYPDTWVCSMNPDPEQDRCEASEQKQKVPLGTFRKDMKTQEEKQKQLTEKIRQQQEKLEALQKTTPIRSQADLKKLPLEVTTRPSTEEPVRRPQRPRSPPLPAVIRNAPSRPPSLPTPRPASQPRKAPVISSTPKLPALAAREEASTSRLLQPPEAPRKPANTLVKTASRPAPLVQQLSPSLLPNSKSPREVPSPKVIKTPVVKKTESPIKLSPATPSRKRSVAVSDEEEVEEEAERRKERCKRGRFVVKEEKKDSNELSDSAGEEDSADLKRAQKDKGLHVEVRVNREWYTGRVTAVEVGKHVVRWKVKFDYVPTDTTPRDRWVEKGSEDVRLMKPPSPEHQSLDTQQEGGEEEVGPVAQQAIAVAEPSTSECLRIEPDTTALSTNHETIDLLVQILRNCLRYFLPPSFPISKKQLSAMNSDELISFPLKEYFKQYEVGLQNLCNSYQSRADSRAKASEESLRTSERKLRETEEKLQKLRTNIVALLQKVQEDIDINTDDELDAYIEDLITKGD",stoichiometry N,2
